Measurements from US20200339657A1, “PEPTIDES AND COMBINATION THEREOF FOR USE IN THE IMMUNOTHERAPY AGAINST CANCERS” (Immatics Biotechnologies GmbH, priority 2017, published 2020).

Legend:
[1] = target: HLA-A*02:01 (Homo sapiens, UniProt P04439, D140Y/D185E/D98H/E176V/E277Q/G131W/G231S/I119V/I121R/I166T/I218V/L300P/L318F/N151K/N90K/P208A/P217A/Q86G/Q94H/R138H/R169H/T345S); assay: MHC binding assay (UV-ligand exchange, β2m ELISA); conditions: for Peptide exchange: peptide exchange yield, binding to HLA-A*02:01
[2] = tested on: CD8+ T cells; assay: In vitro immunogenicity: T-cell priming with aAPCs loaded with peptide/MHC and anti-CD28, multimer readout; type: cell-based, human; conditions: HLA A*02

Row | Substance | Peptide exchange [1] | Wells positive [%] [2] | bind to HLA-A*02 [1]
1 | 43 (GLMTIVTSL; listed as Homo sapiens) [compound 43] | “++++” (>75% = ++++) | “++” (20%-49% = ++) | 
2 | 250 (KMILKMVQL; listed as Homo sapiens) [compound 250] | “+” (>10% = +) | “++” (20%-49% = ++) | 
3 | 41 (SLQDTKITL; listed as Homo sapiens) [compound 41] | “+++” (>50 = +++) |  | 
4 | 56 (FLNQIYTQL; listed as Homo sapiens) [compound 56] | “++++” (>75% = ++++) | “+++” (50%-69% = +++) | 
5 | 57 (GLTGVIMTI; listed as Homo sapiens) [compound 57] | “++++” (>75% = ++++) | “++++” (>= 70% = ++++) | 
6 | 42 (KMMALVAEL; listed as Homo sapiens) [compound 42] | “++++” (>75% = ++++) | “++++” (>= 70% = ++++) | 
7 | KTLGKLWRL (listed as Homo sapiens) [SEQ ID NO: 267] |  |  | binds to HLA-A*02
8 | 55 (RLWQIQHHL; listed as Homo sapiens) [compound 55] | “+++” (>50 = +++) |  | 
9 | 44 (SQTGFVVLV; listed as Homo sapiens) [compound 44] | “++” (>20% = ++) |  | 
10 | 51 (ALAAELNQL; listed as Homo sapiens) [compound 51] | “+++” (>50 = +++) |  | 
11 | 249 (ALFPERITV; listed as Homo sapiens) [compound 249] | “++++” (>75% = ++++) | “++” (20%-49% = ++) | 
12 | 46 (VLITGLPLI; listed as Homo sapiens) [compound 46] | “++++” (>75% = ++++) |  | 
13 | 50 (ELMPRVYTL; listed as Homo sapiens) [compound 50] | “+++” (>50 = +++) | “+” (<20% = +) | 
14 | 60 (GLPDFVKEL; listed as Homo sapiens) [compound 60] | “++++” (>75% = ++++) | “++” (20%-49% = ++) | 
15 | 251 (RLASRPLLL; listed as Homo sapiens) [compound 251] | “+++” (>50 = +++) |  | 
16 | 45 (KLLDEVTYL; listed as Homo sapiens) [compound 45] | “+++” (>50 = +++) |  | 
17 | 38 (VMLNSNVLL; listed as Homo sapiens) [compound 38] | “++++” (>75% = ++++) | “+” (<20% = +) | 
